Test results from paper PMC5551578.

Target: HIV-1 92BR-gp120 (HIV-1 (92BR))
Assay: BLI

B1: gp120-Ab8 (antibody, V domains shown)
VH: EVQLVESGGGVVQPGRSLRLSCAASGFTFSFYGMHWVRQAPGKGLEWVAVISYDGRIKSYADSVKGRFTTSRDNSKNTLYLEMSSLRVEDTAVYYCAKSLVGATLLGPFGPWGQGSLVTVSS
VL: SYELTQPPSVSVAPGQTARITCGGDKIGGERVHWYQQKPGQAPVLVVYDDRDRPSGIPERFSGSNSGNTATLTISRVEAGDEADYYCQVRDSTSDHYVFGSGTKVTVL
B1 showed a Kd of 89.3 nM.
